Test results as given in paper PMC3575409, “Identification of a Novel Protein-Protein Interaction Motif Mediating Interaction of GPCR-Associated Sorting Proteins with G Protein-Coupled Receptors” (PLoS ONE, 2013).
One block for each binder: values may come before it.

Tests used:
[1] = molecular target: GST-fused C-tail of the δ-opioid receptor (residues 314–372); experiment: pull-down; GST-fused receptor C-tails immobilized on glutathione-Sepharose beads, incubated with [35S]-labelled in vitro translated GASPs 1 h at 4°C; 20 mM Tris-HCl pH 7.4, 150 mM NaCl, 1 mM EDTA, 1 mM DTT, 10% glycerol, 1% Triton X-100; Phosphor-imager quantification
[2] = molecular target: all three receptor C-tails (ADRB1, M1 and CALCR); experiment: as above
[3] = molecular target: GST-fused C-tail of the β1 adrenergic receptor (residues 373–477); experiment: pull-down; data not shown; GST-ADRB1 C-tail with GASP-1 fragment 924–1395
[4] = molecular target: the four receptor C-tails (ADRB1, M1, CALCR and TXA2); experiment: pull-down; competition: synthetic peptide (1 to 250 µM, or 150 µM) against [35S]-labelled GASPs for GST-fused C-tails; the peptide and the C-tail
[5] = molecular target: GST-fused C-tail of the β1 adrenergic receptor (residues 373–477); experiment: as above
[6] = molecular target: T1, GST-fused C-tail of the calcitonin receptor (residues 407–490); experiment: pull-down; GST-fused receptor C-tails immobilized on glutathione-Sepharose beads, incubated with [35S]-labelled in vitro translated GASPs 1 h at 4°C; 20 mM Tris-HCl pH 7.4, 150 mM NaCl, 1 mM EDTA, 1 mM DTT, 10% glycerol, 1% Triton X-100; Phosphor-imager quantification
T1 sequence (P30988 whole entry, species assumed, looked up): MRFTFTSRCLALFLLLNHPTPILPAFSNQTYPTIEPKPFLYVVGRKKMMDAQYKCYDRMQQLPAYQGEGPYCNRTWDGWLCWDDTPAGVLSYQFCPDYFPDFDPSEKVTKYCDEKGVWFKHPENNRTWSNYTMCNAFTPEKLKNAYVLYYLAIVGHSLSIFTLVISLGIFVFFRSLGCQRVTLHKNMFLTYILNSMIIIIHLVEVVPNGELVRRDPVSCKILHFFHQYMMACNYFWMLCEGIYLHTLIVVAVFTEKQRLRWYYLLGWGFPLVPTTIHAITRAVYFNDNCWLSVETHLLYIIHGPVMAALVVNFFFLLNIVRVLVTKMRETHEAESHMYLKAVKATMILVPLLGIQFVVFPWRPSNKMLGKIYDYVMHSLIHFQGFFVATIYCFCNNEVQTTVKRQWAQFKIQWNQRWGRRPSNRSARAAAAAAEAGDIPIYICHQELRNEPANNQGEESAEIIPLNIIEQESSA

[7] = molecular target: GST-fused C-tail of the insulin growth factor I receptor (residues 1268–1367); experiment: as above
[8] = molecular target: free GST; experiment: as above
[9] = molecular target: GST-fused C-tail of the type III transforming growth factor β receptor (residues 805–849); experiment: as above
[10] = molecular target: GST-fused C-tail of the histamine 2 receptor (residues 284–349); experiment: as above
[11] = molecular target: GST-fused C-tail of the muscarinic M1 acetylcholine receptor (residues 414–460); experiment: as above
[12] = molecular target: GST-fused C-tail of the α isoform of the thromboxane A2 receptor (residues 304–343); experiment: as above
[13] = molecular target: GST-fused C-tail of the β1 adrenergic receptor (residues 373–477); experiment: as above

GST-fused C-tail of the insulin growth factor I receptor (residues 1268–1367), sequence (P08069 1268-1367): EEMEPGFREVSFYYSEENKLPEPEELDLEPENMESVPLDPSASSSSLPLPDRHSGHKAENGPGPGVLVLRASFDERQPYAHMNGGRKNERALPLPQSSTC
GST-fused C-tail of the type III transforming growth factor β receptor (residues 805–849), sequence (Q03167 805-849): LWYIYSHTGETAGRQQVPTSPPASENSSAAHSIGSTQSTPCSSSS
GST-fused C-tail of the histamine 2 receptor (residues 284–349), sequence (P25021 284-349): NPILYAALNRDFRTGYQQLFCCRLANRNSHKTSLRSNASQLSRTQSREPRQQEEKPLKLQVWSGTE

B3: GASP-1 fragment corresponding to amino acids 924 to 1395 (domain or fragment)
chain: CCVSKPEDDEEMIVESWFWSRDKAIKETGTVATCESKPENEEGAIVGSWFEAEDEVDNRTDNGSNCGSRTLADEDEAIVGSWFWAGDEAHFESNPSPVFRAICRSTCSVEQEPDPSRRPQSWEEVTVQFKPGPWGRVGFPSISPFRFPKEAASLFCEMFGGKPRNMVLSPEGEDQESLLQPDQPSPEFPFQYDPSYRSVQEIREHLRAKESTEPESSSCNCIQCELKIGSEEFEELLLLMEKIRDPFIHEISKIAMGMRSASQFTRDFIRDSGVVSLIETLLNYPSSRVRTSFLENMIRMAPPYPNLNIIQTYICKVCEETLAYSVDSPEQLSGIRMIRHLTTTTDYHTLVANYMSGFLSLLATGNAKTRFHVLKMLLNLSENLFMTKELLSAEAVSEFIGLFNREETNDNIQIVLAIFENIGNNIKKETVFSDDDFNIEPLISAFHKVEKFAKELQGKTDNQNDPEGDQEN
modifications: [35S]-methionine labelled
- percent of input retained (% of the input) [3]: 5

B4: GASP peptide (peptide)
peptide: RVKQEPRFEEEVIIGSWFWAEKEA
- percent of GASP-1, -2 and -7 retained with 150 µM GASP peptide, of the control without peptide [4]: 6 to 35 % of control
- percent inhibition of GASP-2 binding at 100 µM peptide [5]: 65%
- percent inhibition of GASP-2 binding at 250 µM peptide [5]: 76%

Next, values leading:

- percent of the full-length GASP-1 interaction (% of the full-length GASP-1 interaction) [1]: 25
B1: GASP-1 truncated mutant 1025–1395 (conserved C-terminal domain) (domain or fragment)
chain: ICRSTCSVEQEPDPSRRPQSWEEVTVQFKPGPWGRVGFPSISPFRFPKEAASLFCEMFGGKPRNMVLSPEGEDQESLLQPDQPSPEFPFQYDPSYRSVQEIREHLRAKESTEPESSSCNCIQCELKIGSEEFEELLLLMEKIRDPFIHEISKIAMGMRSASQFTRDFIRDSGVVSLIETLLNYPSSRVRTSFLENMIRMAPPYPNLNIIQTYICKVCEETLAYSVDSPEQLSGIRMIRHLTTTTDYHTLVANYMSGFLSLLATGNAKTRFHVLKMLLNLSENLFMTKELLSAEAVSEFIGLFNREETNDNIQIVLAIFENIGNNIKKETVFSDDDFNIEPLISAFHKVEKFAKELQGKTDNQNDPEGDQEN
modifications: [35S]-methionine labelled

- percent of the full-length GASP-2 interaction (% of the full-length GASP-2 interaction) [2]: 30 to 60
B2: GASP-2 truncated mutant 377–838 (domain or fragment)
chain: QEPRFEEEVIIGSWFWAEKEASLEGGASAICESEPGTEEGAIGGSAYWAEEKSSLGAVAREEAKPESEEEAIFGSWFWDRDEACFDLNPCPVYKVSDRFRDAAEELNASSRPQTWDEVTVEFKPGLFHGVGFRSTSPFGIPEEASEMLEAKPKNLELSPEGEEQESLLQPDQPSPEFTFQYDPSYRSVREIREHLRARESAESESWSCSCIQCELKIGSEEFEEFLLLMDKIRDPFIHEISKIAMGMRSASQFTRDFIRDSGVVSLIETLLNYPSSRVRTSFLENMIHMAPPYPNLNMIETFICQVCEETLAHSVDSLEQLTGIRMLRHLTMTIDYHTLIANYMSGFLSLLTTANARTKFHVLKMLLNLSENPAVAKKLFSAKALSIFVGLFNIEETNDNIQIVIKMFQNISNIIKSGKMSLIDDDFSLEPLISAFREFEELAKQLQAQIDNQNDPEVGQQS
modifications: [35S]-methionine labelled

- percent of GASP input retained (% of GASP input) [6]: 2
- percent of GASP input retained (% of GASP input) [1]: 2
- percent of GASP input retained (% of GASP input) [7]: < 1
- percent of GASP input retained (% of GASP input) [8]: < 1
- percent of GASP input retained (% of GASP input) [9]: < 1
- percent of GASP input retained (% of GASP input) [10]: 2
- percent of GASP input retained (% of GASP input) [11]: 2
- percent of GASP input retained (% of GASP input) [12]: 2
- percent of GASP input retained (% of GASP input) [13]: 2
B5: GASP-6 (natural protein)
chain: MGYARKVGWVTAGLVIGAGACYCIYRLTRGRKQNKEKMAEGGSGDVDDAGDCSGARYNDWSDDDDDSNESKSIVWYPPWARIGTEAGTRARARARARATRARRAVQKRASPNSDDTVLSPQELQKVLCLVEMSEKPYILEAALIALGNNAAYAFNRDIIRDLGGLPIVAKILNTRDPIVKEKALIVLNNLSVNAENQRRLKVYMNQVCDDTITSRLNSSVQLAGLRLLTNMTVTNEYQHMLANSISDFFRLFSAGNEETKLQVLKLLLNLAENPAMTRELLRAQVPSSLGSLFNKKENKEVILKLLVIFENINDNFKWEENEPTQNQFGEGSLFFFLKEFQVCADKVLGIESHHDFLVKVKVGKFMAKLAEHMFPKSQE
modifications: [35S]-methionine labelled

- percent of the full-length GASP-1 interaction (% of the full-length GASP-1 interaction) [1]: 30
- percent of the full-length GASP-1 interaction (% of the full-length GASP-1 interaction) [11]: 70
- percent of the full-length GASP-1 interaction (% of the full-length GASP-1 interaction) [13]: 70
B6: GASP-1 truncated mutant 380–1073 (central domain), in vitro translated (domain or fragment)
chain: MTKEEAKTKARARAKQEARSEEEALIGTWFWATDESSMADEASIESSLQVEDESIIGSWFWTEEEASMGTGASSKSRPRTDGERIGDSLFGAREKTSMKTGAEATSESILAADDEQVIIGSWFWAGEEVNQEAEEETIFGSWFWVIDAASVESGVGVSCESRTRSEEEEVIGPWFWSGEQVDIEAGIGEEARPGAEEETIFGSWFWAENQTYMDCRAETSCDTMQGAEEEEPIIGSWFWTRVEACVEGDVNSKSSLEDKEEAMIPCFGAKEEVSMKHGTGVRCRFMAGAEETNNKSCFWAEKEPCMYPAGGGSWKSRPEEEEDIVNSWFWSRKYTKPEAIIGSWLWATEESNIDGTGEKAKLLTEEETIINSWFWKEDEAISEATDREESRPEAEEGDIIGSWFWAGEEDRLEPAAETREEDRLAAEKEGIVGSWFGAREETIRREAGSCSKSSPKAEEEEVIIGSWFWEEEASPEAVAGVGFESKPGTEEEEITVGSWFWPEEEASIQAGSQAVEEMESETEEETIFGSWFWDGKEVSEEAGPCCVSKPEDDEEMIVESWFWSRDKAIKETGTVATCESKPENEEGAIVGSWFEAEDEVDNRTDNGSNCGSRTLADEDEAIVGSWFWAGDEAHFESNPSPVFRAICRSTCSVEQEPDPSRRPQSWEEVTVQFKPGPWGRVGFPSISPFRFPKE
modifications: [35S]-methionine labelled
